Data as given in patent US20060257852A1 (priority 2003, published 2006).

How the values were obtained:
[1] = target: nSh[change], Spike without transmembrane and cytoplasmic domains, with histidine tag (SARS coronavirus (Frankfurt isolate)) (UniProt P59594); experiment: self-association; western blot of cell lysate
[2] = target: nSh[change], Spike without transmembrane and cytoplasmic domains, with histidine tag (SARS coronavirus (Frankfurt isolate)) (UniProt P59594); experiment: self-association; non-heated SDS-PAGE and western blot

## nSh[change], Spike without transmembrane and cytoplasmic domains, with histidine tag (from UniProt P59594 14-1195)
[1]
  frequency of monomeric form: 90%
  frequency of oligomeric form: 10%
[2]
  efficiency of oligomerization: < 10%
